Measurements reported in article PMC12442378, “SmsB-SmsC machinery in Thermococcus kodakarensis functions as an archaeal scaffold mediating Fe-S cluster assembly” (Applied and Environmental Microbiology, 2025).

B1: Tk-SmsB (TK0730 protein) with a 6x His tag at its N-terminus (natural protein, Thermococcus kodakarensis, UniProt Q5JG67 1-446, looked up)
chain: MTETITMADAKAIIENQIEELARRNKEPEWMTKIRYKALEAFERAPHKDPVISEEQLLHFIAKPEVKGLPDHIESLDDLPPEMKALLDRLGISEVEQKYIAGLAVQTDTGVIYNQFLQDWAKKGLIVLPTEEAVRKYPDIVKQHFLKLFRADESKLTAYHTAVWNGGIFLYVKEGLKVPFPLHLFFLIQESALAQAPHIIIIAERNTEFHLIEGCTAPILLKHSLHLDMTEAYFHEGAKAQLTVLQNWPEYVHTRPMTRAKVGRGARFINTTVTLGSGKSNIGDPHYWVEEGGHVELNGIILGQKDFYVDLGGRMFLQGPGASGINASKAVIMDESTVVTRGIIEADAPKTKGHISCDALLMSDKAVMETYPGLISRVDDAELSHEAAIGKIREEELFYLMSRGLDEEKATQLIVKGFLDPMLKDIPMEFLVEIRKIIELAVSGGM
notes: SmsB (SufB homolog) of Thermococcus kodakarensis, locus TK0730; coding region amplified from genomic DNA of strain KU216; theoretical monomer mass 50.8 kDa including the His tag; Homodimer by gel filtration.); not shown: His6, N-terminal, kept
B2: Tk-SmsC (TK0731 protein), recombinant (enzyme, Thermococcus kodakarensis, UniProt Q5JG66 1-246, looked up)
chain: MLKVENLHVSVEDKEILRGVDLEVNPGEFHVIMGPNGSGKSTLALTIAGHPKYRVTDGKILFEGEDITELGPDERAKRGILLAFQVPPEVEGVKVIEFLQQVLVELKGMDPAEAYDLVVEKAKELWFKEEDLHRYVNVGFSGGERKRLELLQALLIEPKLLILDEPDSGVDVDSLSIISRKIEELHQRGTAILLITHYGRILGHLDREKLTVHVMKDGRIVKTGSGELVDQIDREGFARIFEEVGA
notes: SmsC (SufC homolog, ABC-type ATPase) of Thermococcus kodakarensis, locus TK0731; coding region amplified from genomic DNA of strain KU216; theoretical mass 27.5 kDa; Cloned NdeI-BamHI into pET-21a(+); Monomer by gel filtration; source: E. coli BL21-CodonPlus(DE3)-RIL (pET0731), purified (heat treatment, anion exchange, gel filtration)
B3: Tk-CSD (cysteine desulfurase of T. kodakarensis, TK1990 protein) (enzyme, Thermococcus kodakarensis, UniProt Q5JIJ0 1-399, looked up)
chain: MKIPDDIRKDIPLTSEVIYFDNTATSLTPKPVIEAMDEYYLKYRANVHRGVHRLSQIATHKYEESRKVVADFINAKFEEIVFTKNTSESLNLVALGLEHIFEKGDKIVTTPYEHHSDLLPWQRLAKKKGLRLEFIEGDLEGNLDLADAEKKIKGAKLVAVQHVSNALGVIHEVEELGKMAKEEGAIFVVDAAQSAGHMEVDVKKLYADFLGFSGHKGPMGPTGIGVLYINSEFFDVFEPPLIGGGTIEDVDLDSYKLAEPPERFEAGTPNIGGAIGLAAGIRYIERIGIEKIEKQEHKLVKRTTEGLDELEVPWYGPRNLKKHAGVVSFNVPPLHPHDVAAILDEHNIMVRSGHHCALPAMKKLGVEGTVRASFHVYNSVEEVETFLSVMENLIRGLRG
notes: cysteine desulfurase (SufS homolog) of Thermococcus kodakarensis, locus TK1990; coding region amplified from genomic DNA of strain KU216; theoretical monomer mass 44.4 kDa; Cloned NheI-EcoRI into pET-21a(+); Homodimer by gel filtration; source: E. coli BL21-CodonPlus(DE3)-RIL (pET1990), purified (heat treatment, anion exchange, gel filtration)

What was measured:
[1] = biological target: the molecule itself; assay: SEC; Superdex 200 Increase 10/300 GL; 50 mM HEPES pH 7.5, 0.15 M NaCl; Tk-SmsB 40 uM alone, Tk-SmsC 72 uM alone, or mixture of 40 uM each; peak fraction analysed by SDS-PAGE and band densitometry
[2] = biological target: B1; assay: as above; conditions: both partners purified
[3] = biological target: B1; assay: cell-based or functional assay
[4] = biological target: the molecule itself; assay: SEC; gel filtration of Tk-CSD alone and of its mixtures with Tk-SmsB, Tk-SmsC or both, 30 uM of each protein; fractions analysed by SDS-PAGE

Binder: B1
- stoichiometry N [1]: 2

Binder: B2
- density ratio of the Tk-SmsB band to the Tk-SmsC band (SDS-PAGE of peak Pm) [2]: 1.13
- stoichiometry N [2]: 1 Tk-SmsC per Tk-SmsB (printed as 2:2)
- kcat/Km of ATP hydrolysis, Tk-SmsB2C2 (Tk-SmsC alone 4.4 × 10^2) [3]: 4600 M⁻¹ s⁻¹

Binder: B3
- stoichiometry N [4]: 2
